Results on 9 molecules are retold here after US20110207628A1 (UNIVERSITY OF MIAMI, published 2011).

Assay [1] concerns the target T1, tubby-N (N-terminus of mouse tubby, 1M-242P), GST-free (mouse, UniProt P50586 1-242).
T1 construct: range 1-242; Expressed as GST-tubby-N in E. coli BL21(DE3), GST removed by 3C protease cleavage; also called GST-free tubby-N
T1 sequence (looked up): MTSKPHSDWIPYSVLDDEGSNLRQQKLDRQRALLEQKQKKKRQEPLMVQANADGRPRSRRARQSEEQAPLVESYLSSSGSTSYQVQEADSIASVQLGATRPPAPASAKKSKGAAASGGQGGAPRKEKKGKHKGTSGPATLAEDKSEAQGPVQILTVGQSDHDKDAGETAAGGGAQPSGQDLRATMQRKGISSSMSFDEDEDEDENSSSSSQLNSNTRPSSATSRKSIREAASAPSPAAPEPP
Kind of assay: clonal phage on immobilized tubby-N, plaque assay.

Assay [2] deals with T2, FLAG-tubby-F (full-length mouse tubby with N-terminal FLAG tag) (mouse, UniProt P50586 1-505).
T2 construct: mature; also called FLAG-tagged tubby; tubby-vesicles
T2 sequence: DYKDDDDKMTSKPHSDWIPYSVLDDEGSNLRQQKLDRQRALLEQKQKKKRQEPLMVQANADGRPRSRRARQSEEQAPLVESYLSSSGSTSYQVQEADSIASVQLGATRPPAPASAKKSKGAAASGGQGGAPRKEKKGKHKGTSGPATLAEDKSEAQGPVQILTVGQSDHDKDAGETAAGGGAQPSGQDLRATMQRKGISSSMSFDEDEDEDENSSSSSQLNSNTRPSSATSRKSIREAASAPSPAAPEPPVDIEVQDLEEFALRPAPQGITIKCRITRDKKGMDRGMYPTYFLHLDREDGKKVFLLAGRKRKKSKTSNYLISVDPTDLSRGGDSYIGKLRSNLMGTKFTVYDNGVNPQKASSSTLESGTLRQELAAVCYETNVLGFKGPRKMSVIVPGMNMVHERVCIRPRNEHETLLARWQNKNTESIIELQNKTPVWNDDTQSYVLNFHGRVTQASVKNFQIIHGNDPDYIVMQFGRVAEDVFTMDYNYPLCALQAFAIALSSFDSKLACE
Kind of assay: clonal phage on immobilized FLAG-tubby-F, plaque assay.

B1: CCCTC-binding factor (Ctcf) 136G-400T, phage clone (other, mouse, UniProt Q61164 136-400, looked up)
chain: GAYENEVSKEGLAESEPMICHTLPLPEGFQVVKVGANGEVETLEQGELPPQEDSSWQKDPDYQPPAKKTKKTKKSKLRYTEEGKDVDVSVYDFEEEQQEGLLSEVNAEKVVGNMKPPKPTKIKKKGVKKTFQCELCSYTCPRRSNLDRHMKSHTDERPHKCHLCGRAFRTVTLLRNHLNTHTGTRPHKCPDCDMAFVTSGELVRHRRYKHTHEKPFKCSMCDYASVEVSKLKRHIRSHTGERPFQCSLCSYASRDTYKLKRHMRT
notes: range 136-400; For Y2H recloned into pGAD424
As for B1, the “Binding to tubby-N (binding specificity of clonal phage vs. control phage)” value in assay [1] is ~117 X (fold). Also, the “Binding to tubby-F (binding specificity to FLAG-tubby-F vs. to GFP-FLAG)” value in assay [2] is ~44.9 X (fold).

B2: Zinc finger protein 609 (Zfp609) 1M-183E, phage clone (other, mouse, UniProt Q8BZ47 1-183, looked up)
chain: MSLSSGACGGKGVDANPVETYDSGDEWDIGVGNLIIDLDADLEKDQQKLEMSGSKEVGIPAPNAVATLPDNIKFVTPVPGPQGKEGKSKSKRSKSGKDASKPTPGTSLFSPSEGAASKKEVQGRAGDGASAGGLVAAVAPKGSEKAAKASRSVAGSKKEKENSSSKGKKERSEGVGTCSEKDP
notes: range 1-183; Minimal overlap of 2 independent clones; For Y2H recloned into pGAD424
For B2, the “Binding to tubby-N (binding specificity of clonal phage vs. control phage)” value in assay [1] was ~53.2 X (fold). Besides, the “Binding to tubby-F (binding specificity to FLAG-tubby-F vs. to GFP-FLAG)” value in assay [2] was ~2.3 X (fold).

B3: High mobility group box 2 (Hmgb2) 89K-188E, phage clone (other, mouse, UniProt P30681 89-188, looked up)
chain: KKDPNAPKRPPSAFFLFCSENRPKIKIEHPGLSIGDTAKKLGEMWSEQSAKDKQPYEQKAAKLKEKYEKDIAAYRAKGKSEAGKKGPGRPTGSKKKNEPE
notes: range 89-188; Minimal overlap of 5 independent clones; For Y2H recloned into pGAD424
B3: the “Binding to tubby-N (binding specificity of clonal phage vs. control phage)” value in assay [1] is ~312 X (fold). Besides, the “Binding to tubby-F (binding specificity to FLAG-tubby-F vs. to GFP-FLAG)” value in assay [2] is ~21.7 X (fold).

B4: Microtubule-associated protein 7 (Mtap7) 23A-114R, phage clone (other, mouse, UniProt O88735 23-114, looked up)
chain: ASDGYKVQEKRTAPSRPTSTVSGQTSNHSGNKPDPPPVLRVDDRQRLARERREEREKQLAARETVWLEREERARQHYERHLEARKKKLEDQR
notes: range 23-114; For Y2H recloned into pGAD424
As to B4, in assay [1], the “Binding to tubby-N (binding specificity of clonal phage vs. control phage)” value is ~3.5 X (fold). The “Binding to tubby-F (binding specificity to FLAG-tubby-F vs. to GFP-FLAG)” value in assay [2] was ~3.8 X (fold).

B5: Structure specific recognition protein 1 (Ssrp1) 486E-619G, phage clone (other, mouse, UniProt Q08943 486-619, looked up)
chain: EEEEDVAEEFDSNASASSSSNEGDSDREEKKREQLKRAKMAKDRKSRRKSSEAKKGKDPNAPKRPMSAYMLWLNASREKIKSDHPGISITDLSKKAGEIWKGMSKEKKEEWDRKAEDARREYEKAMKEYEGGRG
notes: range 486-619; Minimal overlap of 2 independent clones; For Y2H recloned into pGAD424
On to B5, for which, in assay [1], the “Binding to tubby-N (binding specificity of clonal phage vs. control phage)” value was ~157 X (fold). For the same molecule, the “Binding to tubby-F (binding specificity to FLAG-tubby-F vs. to GFP-FLAG)” value in assay [2] was ~4.5 X (fold).

B6: ATP-binding cassette F1 (Abcf1) 57K-196G, phage clone (other, mouse, UniProt Q6P542 57-196, looked up)
chain: KLQKEKEQQQQQQQQKKKRDTRKGRRKKDVDDDSDERVLMERLKQLSVPASDEEDEVPAPIPRGRKKAKGGNVFEALIQDDSEEEEEEEENRVLKPAKPEKNRINKAVAEEPPGLRSKKGKEEKSKGKAKSKPAAADSEG
notes: Minimal overlap of 2 independent clones; For Y2H recloned into pGAD424
On to B6, for which, in assay [1], the “Binding to tubby-N (binding specificity of clonal phage vs. control phage)” value is ~68.2 X (fold). In addition, in assay [2], the “Binding to tubby-F (binding specificity to FLAG-tubby-F vs. to GFP-FLAG)” value was ~27.2 X (fold).

B7: IQ motif containing GTPase activating protein 2 (Iqgap2) 1232E-1368E, phage clone (other, mouse, UniProt Q3UQ44 1232-1368, looked up)
chain: EKSDLLNELLESLGEVPTVESFLGEGAVDPNDPNKENTLNQLSKTEISLSLTSKYDVKDGEAVDGRSLMIKTKKLIIDVTRNQPGSTLTEILETPATGQQELEHAKDMESRAVVDSRTPEEGKQSQAVIEDARLPLE
notes: range 1232-1368
As to B7, the “Binding to tubby-N (binding specificity of clonal phage vs. control phage)” value in assay [1] is ~53.2 X (fold). Besides, the “Binding to tubby-F (binding specificity to FLAG-tubby-F vs. to GFP-FLAG)” value in assay [2] is ~1.8 X (fold).

B8: Zinc finger E-box binding homeobox 1 (Zeb1) 903E-1021E, phage clone (other, mouse, UniProt Q64318 903-1021, looked up)
chain: EHTGKRPHECGICRKAFKHKHHLIEHMRLHSGEKPYQCDKCGKRFSHSGSYSQHMNHRYSYCKRGAEDRDAMEQEDAGPEVLPEVLATEHVGARASPSQADSDERESLTREEDEDSEKE
notes: range 903-1021; Residues are the minimal overlap of 2 independent clones; For Y2H the insert was recloned into pGAD424
For B8, in assay [1], the “Binding to tubby-N (binding specificity of clonal phage vs. control phage)” value was ~284 X (fold). Besides, the “Binding to tubby-F (binding specificity to FLAG-tubby-F vs. to GFP-FLAG)” value in assay [2] was ~28.7 X (fold).

B9: Tubby like protein 1 (Tulp1) 125D-243E, phage clone (other, mouse, UniProt Q9Z273 125-243, looked up)
chain: DDDEEEEEKKEGKKEKSSLPPKKAPKEREKKAKALGPRGDVGSPDAPRKPLRTKKKEVGEGTKLRKAKKKGPGETDKDPAGSPAALRKEFPAAMFLVGEGGAAEKGVKKKGPPKGSEEE
notes: range 125-243; For Y2H recloned into pGAD424
For B9, the “Binding to tubby-N (binding specificity of clonal phage vs. control phage)” value in assay [1] is ~49 X (fold). Besides, the “Binding to tubby-F (binding specificity to FLAG-tubby-F vs. to GFP-FLAG)” value in assay [2] was ~29.1 X (fold).
